± gives the uncertainty stated by the source.

The data set in a line: amyloid nucleation score (Sup35N fusion, yeast selection) (log enrichment); library NNK2; higher = more nucleation; inactive = no reads after selection. A digest of the protocol: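 Peptides of 20 random codons fused to Sup35N were expressed in psi-negative yeast, induced 24 hours with 100 μM copper sulfate, then grown 7 days at 30°C on medium lacking adenine and uracil. Input and output plasmid inserts were Illumina-sequenced. Nucleation score is the DiMSum log enrichment of output over input reads, centred on the mode score of non-aggregating sequences, excluding sequences with under 100 input reads. Random libraries had three technical output replicates.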
On to VCACLNMTCVFFILTGNGVK, for which the amyloid nucleation score is 7.59 ± 0.039.
VCCVP: the amyloid nucleation score is -1.09 ± 1.1.
Next, VCDFIW: -1.48 ± 0.63.
The result for VCDGV reads -0.582 ± 0.44; that for VCLFLSNQRMWYVEFNTC, -0.549 ± 1; that for VCYGVSFPIGWGYQYHNRNV, “inactive”.
Next, VDFVIGLLKPTVVKNHGCWS: -0.301 ± 0.65; VDHSMVCWVRCMGC: 0.19 ± 1.1; VDIVFSPSTNQWFLFLNCLV: 4.24 ± 0.038.
The substance VDMGGDPWMVNRCELSLRLW displayed an amyloid nucleation score of 0.881 ± 0.43.
The result for VDRKWRKT reads -0.373 ± 1.
Next, VDVFGVCRRSVYVA: 0.988 ± 0.4.
The result for VDWCWGLWT reads 0.945 ± 0.24.
VDWFLYFCSPTFCHVL returned an amyloid nucleation score of 8.741 ± 0.063.
VEARKLYQCMCVVRC came in with an amyloid nucleation score of -0.143 ± 0.28.
The result for VEFILKVGYAFTATCPCGFW reads -0.711 ± 0.79; that for VEGTPMFVWINWGVGKVGQS, 3.42 ± 0.051; that for VEHARGDRCCRQDYGVQQYK, 2.68 ± 0.23.
Next, VEHEFVQILT: -0.733 ± 0.36; VELQP: 1.18 ± 0.29; VFFVHSYND: “inactive”.
The result for VFGSEVSNIRRESWRSLIGQ reads 0.756 ± 0.18.
Turning to VFGWSVRFNYYIFMSMANDV, the amyloid nucleation score came to 3.62 ± 0.13.
Next, VFIVMYSKFLKHVYGTTLTN: “inactive”; VFIVYLWWTLRSWHIRVLIS: -0.52 ± 1.1; VFLTGCIPR: 0.052 ± 0.37.
The result for VFMGNSLHFRRSTVAHWRSN reads 1.39 ± 0.41; that for VFPQLCDVSLE, -0.476 ± 1.1.
The result for VFSDWVSSKPLRSVVPCFCN reads -0.496 ± 1.1; that for VFSEWWFTANAACSAQCYEW, 0.789 ± 0.33.
VFSPFQFNFWWSFCVNFALV displayed an amyloid nucleation score of 4.367 ± 0.035.
The result for VFSSNEYFPLYSVFIVSEIL reads 2.47 ± 0.074.
The result for VFTKLTLSSI reads 0.227 ± 1.1; that for VFTTLDWTSKYALIR, 0.56 ± 0.5.
Substance VFVARITSRTIIVLNESGFE returned an amyloid nucleation score of 5.21 ± 0.089.
The result for VFVERMPVGFHPFRIKIILT reads 1.01 ± 0.59; that for VFWSGAILLLAKCIGGMSIL, -0.47 ± 0.32; that for VFYRASRSFKQSVRAPVGLR, -0.675 ± 0.55.
VGALCGYAVVSWYSWSLSVL displayed an amyloid nucleation score of 1.83 ± 0.11.
The result for VGCIYRTQDCCSRDMVCIRV reads 0.071 ± 0.79.
The result for VGCPEMGLVSLGSLLRLGSA reads 0.968 ± 0.39; that for VGELVMLFSKYSSVNVRGFA, 3.04 ± 0.075; that for VGFVCDLTGMNMGRFFKCGN, “inactive”.
The result for VGGIWE reads -0.427 ± 0.45.
Consider VGGYDNLSILISTLQSSIFS, for which the amyloid nucleation score is -0.779 ± 0.37.
Next, VGIDYV: “inactive”; VGIGVAERCDSRWLL: 0.886 ± 0.3.
Next, VGILSRWLRGRFTVTRWLWC: -0.945 ± 1.1; VGIRRYVRFKVLHNRVNVHE: “inactive”.
With VGLACSLS, the amyloid nucleation score is -1.07 ± 0.78.
Next, VGSDWKSVNIFAVDEPGSTY: -1.43 ± 0.55.
The result for VGSVK reads -0.394 ± 1.1; that for VGVIAMPLFLCMGQDSLLFV, 4.6 ± 0.061.
Next, VHARYMIFWKWTILLHS: “inactive”; VHFCLKH: 0.241 ± 0.22; VHNCCTVVSLRREDESVYTN: -0.146 ± 0.38.
VHNVLKRVYSYGFFNKEHIY: the amyloid nucleation score entry is “inactive”.
VIAKDLMHMLPLYM had an amyloid nucleation score of 0.37 ± 0.25.
VICCEVLPSAPLSLWMNLKV gave an amyloid nucleation score of -0.469 ± 1.1.
Next, VIEIWSN: -0.531 ± 1.1; VIFVVNIFHLYWLRVC: 0.748 ± 0.58.
Next, VIIRSFR: -0.629 ± 0.34; VIKFDQISCNSFPNSLL: -0.479 ± 0.55; VISASSVAP: 0.557 ± 0.31.
VISSMFNLIKYGSVWSLRGL registered an amyloid nucleation score of -0.706 ± 1.
Next, VITVTPGGHVPWVLASNGNI: -1.53 ± 0.78.
In turn, VIVKAVVDIIGSN returned an amyloid nucleation score of 0.147 ± 0.76.
The substance VIYFHHVTYSIYPLL came in with an amyloid nucleation score of 0.561 ± 0.62.
The result for VIYIWVSVPITPWESIIRGI reads “inactive”.
Next, VKEGSLCFYMRRRTGQL: -0.627 ± 0.76; VKHVIAHTRG: 1.52 ± 0.38; VKLVCSDFKMACTSSSMSVD: 0.861 ± 0.24.
Next, VKRYDS: “inactive”; VKVRFFSHVNSMMSLKSIVV: “inactive”.
Take VKWKLGLTWMVVIIDGVLCV: the amyloid nucleation score turned out to be 0.963 ± 0.35.
The result for VLDAHLY reads “inactive”; that for VLDCRFKCCNFTRDLT, 7.67 ± 0.043; that for VLDHDGVVVWNFFPHMYSDP, 4.63 ± 0.05.
The result for VLECFFVA reads 0.183 ± 0.5.
The substance VLFCL yielded an amyloid nucleation score of -0.806 ± 0.48.
Next, VLFDF: 0.652 ± 0.56.
Next, VLFGLKYFGSAGIQMSTCDK: 3.53 ± 0.066; VLFRELRSTTASRTGDGDMM: 4.61 ± 0.057.
Next, VLFSDA: -0.08 ± 1.
Substance VLLHCRSICGTRLALPLTGR returned an amyloid nucleation score of 1.57 ± 0.4.
Next, VLLSKGRNHSPCVHILAIIP: 0.494 ± 0.8.
Next, VLNGGRGVIRLYRVFAGKRF: -1.06 ± 0.47; VLPGKVRPFCGSMCNSFFSL: 0.157 ± 1; VLRGPS: 0.302 ± 0.56.
Next, VLRIRLQAGEGKRCE: 4.878 ± 0.044; VLRKEFVYSGCWAKRRLG: 0.165 ± 0.17; VLRLRGLRRWI: 0.638 ± 0.23.
As for VLSPQVKRSHTFLGNDLRTD, the amyloid nucleation score was 4.64 ± 0.072.
For the substance VLTSFGLW, the amyloid nucleation score is 5.206 ± 0.037.
Next, VLVMVRTFNGNILPFLAPDL: 5.714 ± 0.024.
Next, VLWTIKGFPC: 1.63 ± 0.11; VLYPMLNGGFMESLN: “inactive”; VLYRLKVKAQWSLS: 0.878 ± 0.28.
Substance VMAILCTNARQLEDSLRQVE returned an amyloid nucleation score of 0.452 ± 0.43.
Substance VMCIG had an amyloid nucleation score of -0.33 ± 0.41.
The result for VMFYRRYYFKSMANLVDTFR reads -0.932 ± 0.48; that for VMGNFRFYRSMLAFDYDEGV, 1.14 ± 0.18.
Next, VMLNWDMGDFRA: “inactive”; VMLRYNSYGNYLLRWHTDDA: -0.843 ± 0.44.
Next, VMQVVLGNMLMRRSQVLYNW: -0.62 ± 0.41.
Substance VMRHERTNFIYSKWWGFVEE displayed an amyloid nucleation score of -0.011 ± 0.65.
Regarding VMRIVMIDMKSESWSTERVS, the amyloid nucleation score came out at 0.611 ± 0.57.
As for VMSNFFVLRNGCWPMGRG, the amyloid nucleation score was 6.124 ± 0.049.
The result for VMVCGTFANKLRLPVSIELT reads 0.534 ± 0.28; that for VMWDRRHFMAVSSDLEDKTR, 0.438 ± 0.16.
Next, VNGHLNFAS: 0.712 ± 0.56.
For VNGSIARYGVCFVARCHVIS, the amyloid nucleation score came to 0.246 ± 0.45.
The result for VNIFVLLYLYVWNASIVITF reads -0.221 ± 1.1.
Next, VNLTSFYLITDCTLNGQQWR: 8.654 ± 0.052.
Next, VNMIRRTINSGVYRWSFQLQ: 1.14 ± 0.54; VNSLFLVVRYGG: 5.25 ± 0.05; VNSLSGHFFVFFRLLFTTMV: -1.1 ± 0.41.
With VNSLYCM, the amyloid nucleation score is -0.447 ± 1.1.
Next, VNWGNGVFAGFLWYYVRPCH: -1.03 ± 1.1; VNYLPWLWSMCNRVH: -0.943 ± 0.61.
Next, VNYRNLMKESLCILRQTYTL: 0.031 ± 0.65; VPGDDPSIVTVMQMYGFSLI: -0.385 ± 0.64; VPLRA: 0.002 ± 0.55.
Next, VPLTPLGENTECLSRARDIT: 0.826 ± 0.45; VPNVCAGYQPSETETYVLVR: 0.185 ± 0.65.
VPPPVGVIYGIQ registered an amyloid nucleation score of 0.637 ± 0.32.
VQATGADVFWDW yielded an amyloid nucleation score of -0.199 ± 0.76.
The result for VQCVMSESMDELYSLVLRCP reads 0.998 ± 0.28; that for VQDQNRREAEVSSKGGTCSW, -0.42 ± 0.35.
Next, VQDYKSVRYVGNSRIRVGGS: -0.392 ± 0.79; VQFTRSVRFTLQFCARSDKT: 6.91 ± 0.045; VQGSEKYGVVLFEY: 5.83 ± 0.094.
The result for VQIKLRQFTNKAFYTESMST reads -0.053 ± 0.63.
The substance VQSTRIISCVLCLGDWLEDY had an amyloid nucleation score of 10.19 ± 0.022.
Next, VRDLPMCNPYIRYTLFCQVS: -0.497 ± 0.45; VRFLVISINAYSVDVPHISI: -1.63 ± 1.1; VRFVINSWLTCVYERNIKLL: -0.058 ± 0.22.
The result for VRGSATEFTILVVVVVLGKR reads 0.182 ± 0.42; that for VRGYCGFALQLVRCEWRICS, 7.272 ± 0.06; that for VRNFCFDYSVWYENGLTWKR, 0.527 ± 0.66.
Next, VRPMLGGSNRLHFSMVFDDD: 5.964 ± 0.059.

The record behind these values is the supplement of paper PMC12042874.
